The record followed here is the supplement of paper PMC10126150.

The test system of this series is ATP. The series can be described thus: switch fluorescence ratio, 500 uM ATP over buffer (Cy3 cluster intensity, sum of 5 cycles each) (fold (ratio)); higher = stronger signal-on switching upon ATP binding; sequences stand for … in TCGTCGGCAGCGTCAGATGTGTATAAGAGACAGTTTTTTTTTTTTTTTTTTTTTTTTT…TC. The conditions noted are these: aptamer strand: ATP DNA aptamer (quencher-CACCTGGGGGAGTATTGCGGAGGAAGG + anchor), 100 nM annealed; ATP concentration: 500 uM. The essentials: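 Five buffer/ATP imaging cycles were run on Cy3-labelled switching-strand clusters on a modified Illumina MiSeq flow-cell, with NaOH stripping and re-annealing between cycles. In each cycle, clusters annealed to 100 nM quencher-labelled ATP aptamer were imaged in selection buffer, then after 15 min with 500 uM ATP at 22 °C. Per cluster, the fluorescence ratio is summed target-cycle over summed buffer-cycle Cy3 intensity, averaged per switch-domain sequence. Only clusters within 100-1000 RFU were kept.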

± gives the standard deviation of the averaged measurements.
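Note: ATP exposure 15 min at 22 °C before imaging.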

With CATGATGTGT, the switch fluorescence ratio amounted to 1 ± 0.042.

Take GTTGACCGGC: the switch fluorescence ratio stood at 0.996 ± 0.011. With TATATCTATA, the switch fluorescence ratio was found to be 1.02 ± 0.015. Turning to CCGGGGTTGG, the switch fluorescence ratio worked out at 1 ± 0.012. As for TTTTTGTGAT, the figure is 1.02 ± 0.032; as for ATAGGATGGA, 1 ± 0.029. As for TCCAGGTGGG, the figure is 2.39 ± 0.19; as for GGGGGGAAGG, 1.01 ± 0.03. Consider TCGGAGCAGG, for which the switch fluorescence ratio is 1.4 ± 0.058.

On to GCTTTTCATT, for which the switch fluorescence ratio was found to be 0.988 ± 0.038. Turning to TTTGGTTGCT, the switch fluorescence ratio turned out to be 0.991 ± 0.028. With GATGGTTTGA, the switch fluorescence ratio was determined as 1.02 ± 0.021. As for AAAAGAGTAT, the figure is 1 ± 0.016. In the case of TCGTTGCATG, the switch fluorescence ratio is 1.01 ± 0.065.

On to TCGCGGGCTA, for which the switch fluorescence ratio was determined as 1.04 ± 0.046.

In the case of GGGGTAAACA, the switch fluorescence ratio amounted to 0.99 ± 0.038.

AGGAAAATGG: the switch fluorescence ratio came out at 1 ± 0.021. Regarding TGGGTCGGGC, the switch fluorescence ratio was found to be 0.9905 ± 0.009. With TGTGCGACCT the figure was 1.16 ± 0.043; with CGCCAGATTT, 0.9963 ± 0.0072; with TGCTTGTTAC, 1.03 ± 0.018. With AATTATTGCA the figure was 0.997 ± 0.043; with AAGTTAAAAG, 0.975 ± 0.012.

As to GCATTAAGAT, the switch fluorescence ratio stood at 1.02 ± 0.025. With GCTTGTTACG the figure was 0.98379 ± 0.00012.

On to TTGTAGGGT, for which the switch fluorescence ratio is 0.986 ± 0.014.

On to CAGACGGTTT, for which the switch fluorescence ratio came out at 1.095 ± 0.0078.

As for GGGCCGGCTG, the switch fluorescence ratio stood at 1.01 ± 0.036.

For the sequence GAAGGGGAAG, the switch fluorescence ratio worked out at 0.998 ± 0.0043. For TGGTAGGGG, the switch fluorescence ratio was determined as 1.01 ± 0.016. TTTTGTTAGC: the switch fluorescence ratio turned out to be 1.01 ± 0.03.

As for GCAGTGTGCG, the switch fluorescence ratio came to 0.985 ± 0.025. Turning to AAATTATAGG, the switch fluorescence ratio stood at 1.01 ± 0.032. As for CGGAGAGCTG, the figure is 1.04 ± 0.014; as for TGATATAGCA, 1.03 ± 0.013. As for ATCAATGTCT, the figure is 0.994 ± 0.005; as for GGGTGTTAGT, 1 ± 0.016; as for GTTTTGAGAG, 0.9595 ± 0.0086. As to TGCGGGGCTT, the switch fluorescence ratio is 0.997 ± 0.048. As for TAAGTAGGGG, the figure is 0.981 ± 0.023. As to AAAATTTATG, the switch fluorescence ratio is 1.01 ± 0.038. As for TCACGCTTCA, the figure is 1.12 ± 0.033; as for GCGGGCTGGA, 1.01 ± 0.044; as for TGGCAGGCAC, 1.04 ± 0.012. Regarding GGTATAATGG, the switch fluorescence ratio came out at 0.971 ± 0.03. As for TTCTGGCACA, the figure is 1.02 ± 0.029; as for ACGGTTGTGG, 1.01 ± 0.026; as for TCGTTATTGT, 1.01 ± 0.021. As for CGTCTGGGCG, the figure is 0.957 ± 0.097; as for CAAAAGTTGG, 0.9923 ± 0.0052; as for GGGGCCAAGG, 0.981 ± 0.017. For the sequence ACCGTCATTT, the switch fluorescence ratio was found to be 1.05 ± 0.046. Take TTCGCTGTAT: the switch fluorescence ratio turned out to be 1.01 ± 0.011.

Turning to GCGGTTCAGC, the switch fluorescence ratio turned out to be 0.985 ± 0.014. As for TGGAACGGAG, the figure is 0.98 ± 0.021; as for CGGGGGTGTA, 0.995 ± 0.026; as for TTTTTGGGCT, 0.996 ± 0.028. With AAGATGGAGG the figure was 0.973 ± 0.037. As for TTGGAGGCGA, the figure is 0.994 ± 0.062; as for CGTATTTTTT, 1.01 ± 0.032. As to GATTTGGCGA, the switch fluorescence ratio came to 0.992 ± 0.011. As for GGGTATTGCA, the figure is 0.996 ± 0.018. Turning to GGGAAGACTT, the switch fluorescence ratio was 1.02 ± 0.087. With GGGTTGTCGC the figure was 1.01 ± 0.024; with TTTTGATTAG, 1.006 ± 0.0015; with TTCCTTTTAA, 1.04 ± 0.055. For the sequence CTGGGGCCTA, the switch fluorescence ratio was 0.982 ± 0.023.

As to TTTCCTCCCT, the switch fluorescence ratio turned out to be 1.84 ± 0.5.

Take TGGGGGCTTG: the switch fluorescence ratio worked out at 0.993 ± 0.024.

Take TTTGTGGGTT: the switch fluorescence ratio amounted to 0.997 ± 0.025. Regarding CGGGGTTTGA, the switch fluorescence ratio is 1.02 ± 0.028. For GCATAACAGG, the switch fluorescence ratio was 1.04 ± 0.045. With AGGGGTTAGC the figure was 0.974 ± 0.05; with TGCAACCTTG, 1.0397 ± 0.0007.

Take AAATGGAATG: the switch fluorescence ratio amounted to 0.983 ± 0.046. With GAAACAGGGA the figure was 1.06 ± 0.057. With GCTACACGAA, the switch fluorescence ratio was 1.04 ± 0.027. Take CGTCGAGGGA: the switch fluorescence ratio stood at 1.1 ± 0.12. For the sequence GGGATGTGTT, the switch fluorescence ratio came out at 0.9635 ± 0.0069.

On to AGGGAGGTTA, for which the switch fluorescence ratio was determined as 0.972 ± 0.06. With GCGTCGAAGG the figure was 0.981 ± 0.047; with AGAAGGGTAT, 0.976 ± 0.017; with AGCCCCTTAG, 1.002 ± 0.0065.

For the sequence GGAATAAGGT, the switch fluorescence ratio is 1.01 ± 0.031.

Turning to AAATTCATAG, the switch fluorescence ratio was 1.019 ± 0.0033. With GCGGGGGGTT the figure was 1.01 ± 0.038; with CAGCGCCATA, 1.078 ± 0.0042; with AGTCCTTTGT, 1.02 ± 0.025. As for TGGATGATGG, the figure is 0.961 ± 0.019; as for GGGGGAAAG, 1 ± 0.025.

As to CTGCGAATAA, the switch fluorescence ratio worked out at 1.4 ± 0.098. On to CAGCATAAAG, for which the switch fluorescence ratio worked out at 1.02 ± 0.057.

Turning to TCGAGATCCG, the switch fluorescence ratio turned out to be 0.996 ± 0.018.

With TACTTAATGT, the switch fluorescence ratio amounted to 1.032 ± 0.0033.

Take TGAGATTCTG: the switch fluorescence ratio came to 1.05 ± 0.043.

For the sequence CTATTTTTAG, the switch fluorescence ratio was 0.9968 ± 0.0021. Consider GTTGAGCGGG, for which the switch fluorescence ratio worked out at 0.9786 ± 0.0069. As for ATATCAATGG, the switch fluorescence ratio was determined as 1.058 ± 0.0082. AAGGGCCGCG: the switch fluorescence ratio was 1 ± 0.017. With GCTGGGGGCG the figure was 0.987 ± 0.025; with CCTTCTAGTT, 1.035 ± 0.0018; with GTGTTTTTTT, 0.991 ± 0.023. As for ATAACTTATA, the figure is 1.011 ± 0.0041. With GTTAGTCAAA, the switch fluorescence ratio came to 0.991 ± 0.01. Regarding ATTTGATTCA, the switch fluorescence ratio worked out at 0.997 ± 0.012.

As to TAGCTGAGTG, the switch fluorescence ratio was found to be 0.985 ± 0.043. As to CGGAAAGAAG, the switch fluorescence ratio is 0.989 ± 0.046. With AGGGCTCCTG the figure was 1.0172 ± 0.00034.

For AGTTTGGGCC, the switch fluorescence ratio amounted to 1.017 ± 0.0059. With TTAGCCCATG the figure was 1.03 ± 0.029; with CGAACCTTCG, 2.35 ± 0.092. Consider GGGTGTGCGG, for which the switch fluorescence ratio worked out at 0.972 ± 0.038. As for CTTGTATCGT, the figure is 0.971 ± 0.015; as for AAGTCGCGGA, 0.999 ± 0.033. Consider TCTAGCCGGT, for which the switch fluorescence ratio turned out to be 0.9878 ± 0.0085.

In the case of TCTGGAAGGC, the switch fluorescence ratio worked out at 1.29 ± 0.25. With ATCACGTCTA the figure was 1.024 ± 0.003; with ATGTCGTGTC, 1 ± 0.013.

With TGGTTGTTTG, the switch fluorescence ratio is 0.968 ± 0.035. As for CATTCTTCGC, the figure is 1.15 ± 0.029.
